Laboratory results published in the supplement of paper PMC11908140.

B1: library; numbered along this chain (parent)
chain: MRKPRAAVGSGHRKQAASQEGRQKHAKNNSQAKPSACDGLARQPEEVVLQASVSSYHLFRDVAEVTAFRGSLLSWYDQEKRDLPWRRRAEDEMDLDRRAYAVWVSEVMLQQTQVATVINYYTGWMQKWPTLQDLASASLEEVNQLWAGLGYYSRGRRLQEGARKVVEELGGHMPRTAETLQQLLPGVGRYTAGAIASIAFGQATGVVDGNVARVLCRVRAIGADPSSTLVSQQLWGLAQQLVDPARPGDFNQAAMELGATVCTPQRPLCSQCPVESLCRARQRVEQEQLLASGSLSGSPDVEECAPNTGQCHLCLPPSEPWDQTLGVVNFPRKASRKPPREESSATCVLEQPGALGAQILLVQRPNSGLLAGLWEFPSVTWEPSEQLQRKALLQELQRWAGPLPATHLRHLGEVVHTFSHIKLTYQVYGLALEGQTPVTTVPPGARWLTQEEFHTAAVSTAMKKVFRVYQGQQPGTCMGSKRSQVSSPCSRKKPRMGQQVLDNFFRSHISTDAHSLNSAAQ
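Further: cells sorted at 72 h after reporter transfection.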

Variants of: B1
Test: 8OG:A repair function score (normalized; synonymous = 0, nonsense = -1) (normalized log-likelihood score); higher = more repair activity (WT-like)
Conditions: with 8OG:A DNA repair reporter (GFP) in HEK-293 MUTYH KO cells
Procedure, shortened: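 Per-tile Rosace fitness scores were converted to a normalized repair function score anchored on synonymous and nonsense distributions. That scale puts synonymous medians at 0 and nonsense medians at -1. Variants with starting counts under 300 counts per million were discarded. Input came from sorting viable mCherry+ MUTYH knockout HEK-293 cells, carrying lentiviral MUTYH cDNA NNN codon-scan libraries in 10 pg/ml doxycycline and an 8OG:A GFP repair reporter, into GFP+ and GFP− bins at 72 h, three replicates per tile, followed by tile amplicon sequencing.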
For P316M, the “8OG:A repair function score” value was -0.238.
For T439F, the “8OG:A repair function score” value was -0.0571.
G326D was tested, and the “8OG:A repair function score” value was -0.344.
With Y76G the “8OG:A repair function score” value was -1.14.
For V415W, the “8OG:A repair function score” value was 0.0208.
In the case of V415Q, the “8OG:A repair function score” value is reported as 0.189.
In the case of E168K, the “8OG:A repair function score” value is reported as -0.00268.
For T346D, the “8OG:A repair function score” value was -0.917.
With V166L the “8OG:A repair function score” value was -0.161.
With P306Q the “8OG:A repair function score” value was 0.0003.
In the case of P306R, the “8OG:A repair function score” value is reported as -0.0125.
For V214E, the “8OG:A repair function score” value was -0.927.
In the case of A280G, the “8OG:A repair function score” value is reported as -0.137.
With S515N the “8OG:A repair function score” value was 0.0152.
With S515C the “8OG:A repair function score” value was -0.0274.
For S515K, the “8OG:A repair function score” value was -0.00207.
With V242H the “8OG:A repair function score” value was -0.806.
V242R was tested, and the “8OG:A repair function score” value was -0.886.
For S55N, the “8OG:A repair function score” value was 0.00188.
In the case of S55R, the “8OG:A repair function score” value is reported as -0.0153.
S276N was tested, and the “8OG:A repair function score” value was -0.00423.
With A162R the “8OG:A repair function score” value was -1.02.
Y56N was tested, and the “8OG:A repair function score” value was -0.0497.
R97M was tested, and the “8OG:A repair function score” value was -0.0359.
R97Q was tested, and the “8OG:A repair function score” value was 0.00692.
With R97L the “8OG:A repair function score” value was -0.0375.
In the case of A253D, the “8OG:A repair function score” value is reported as -1.03.
A253C was tested, and the “8OG:A repair function score” value was -0.853.
For A253Y, the “8OG:A repair function score” value was -0.985.
In the case of A253W, the “8OG:A repair function score” value is reported as -0.975.
S197T was tested, and the “8OG:A repair function score” value was -0.695.
S197R was tested, and the “8OG:A repair function score” value was -1.21.
With Y190V the “8OG:A repair function score” value was -0.566.
Y190W was tested, and the “8OG:A repair function score” value was -0.479.
In the case of V104G, the “8OG:A repair function score” value is reported as -0.976.
For Q286R, the “8OG:A repair function score” value was 0.00446.
In the case of Y120C, the “8OG:A repair function score” value is reported as -0.227.
With T179S the “8OG:A repair function score” value was 0.00681.
Q499P was tested, and the “8OG:A repair function score” value was 0.0119.
For Q499N, the “8OG:A repair function score” value was -0.0201.
With E45G the “8OG:A repair function score” value was 0.13.
With E45R the “8OG:A repair function score” value was 0.0409.
L403N was tested, and the “8OG:A repair function score” value was -0.0773.
For P264M, the “8OG:A repair function score” value was -0.233.
In the case of P264Q, the “8OG:A repair function score” value is reported as -0.145.
In the case of R88Y, the “8OG:A repair function score” value is reported as -0.0224.
For P244N, the “8OG:A repair function score” value was -0.467.
P244S was tested, and the “8OG:A repair function score” value was -0.232.
In the case of A36H, the “8OG:A repair function score” value is reported as 0.146.
A36I was tested, and the “8OG:A repair function score” value was -0.0893.
For A36M, the “8OG:A repair function score” value was -0.076.
In the case of G248I, the “8OG:A repair function score” value is reported as -1.02.
In the case of S507C, the “8OG:A repair function score” value is reported as -0.0153.
For A223N, the “8OG:A repair function score” value was -0.465.
N251T was tested, and the “8OG:A repair function score” value was -0.798.
In the case of S54M, the “8OG:A repair function score” value is reported as -0.0179.
V107Y was tested, and the “8OG:A repair function score” value was -0.533.
V261K was tested, and the “8OG:A repair function score” value was -0.147.
V261A was tested, and the “8OG:A repair function score” value was -0.399.
V114S was tested, and the “8OG:A repair function score” value was -0.184.
In the case of V114T, the “8OG:A repair function score” value is reported as -0.141.
With L109D the “8OG:A repair function score” value was -1.16.
For L109M, the “8OG:A repair function score” value was -0.105.
For L72E, the “8OG:A repair function score” value was -1.21.
L72A was tested, and the “8OG:A repair function score” value was -0.207.
A194H was tested, and the “8OG:A repair function score” value was -1.31.
For S270I, the “8OG:A repair function score” value was -0.0239.
Q388R was tested, and the “8OG:A repair function score” value was 0.206.
With W374F the “8OG:A repair function score” value was -0.33.
In the case of F330H, the “8OG:A repair function score” value is reported as -0.37.
With A245W the “8OG:A repair function score” value was -0.0373.
For R482P, the “8OG:A repair function score” value was 0.0273.
In the case of A291K, the “8OG:A repair function score” value is reported as 0.00353.
For Q113D, the “8OG:A repair function score” value was -0.327.
For R491F, the “8OG:A repair function score” value was 0.0113.
For T130G, the “8OG:A repair function score” value was -0.0108.
T308P was tested, and the “8OG:A repair function score” value was -0.0519.
For E90S, the “8OG:A repair function score” value was -0.0214.
With T460C the “8OG:A repair function score” value was -0.0915.
With F250Q the “8OG:A repair function score” value was -0.831.
In the case of L411G, the “8OG:A repair function score” value is reported as -0.531.
With L411Y the “8OG:A repair function score” value was 0.251.
In the case of R42L, the “8OG:A repair function score” value is reported as -0.0705.
In the case of N517L, the “8OG:A repair function score” value is reported as -0.0164.
For L180F, the “8OG:A repair function score” value was -0.576.
E413W was tested, and the “8OG:A repair function score” value was -0.379.
For A259G, the “8OG:A repair function score” value was -0.148.
In the case of G186L, the “8OG:A repair function score” value is reported as -1.02.
In the case of G70V, the “8OG:A repair function score” value is reported as 0.0055.
In the case of G258C, the “8OG:A repair function score” value is reported as -1.12.
For G258S, the “8OG:A repair function score” value was -1.05.
With C269V the “8OG:A repair function score” value was -1.27.
C269Q was tested, and the “8OG:A repair function score” value was -1.19.
In the case of A89C, the “8OG:A repair function score” value is reported as -0.0299.
A89R was tested, and the “8OG:A repair function score” value was -0.0424.
In the case of C304W, the “8OG:A repair function score” value is reported as -0.296.
In the case of F68W, the “8OG:A repair function score” value is reported as -0.369.
For F68Y, the “8OG:A repair function score” value was -0.0444.
In the case of P174D, the “8OG:A repair function score” value is reported as -0.922.
Q232A was tested, and the “8OG:A repair function score” value was -0.179.
R246Q was tested, and the “8OG:A repair function score” value was -0.476.
With T66G the “8OG:A repair function score” value was -0.0192.
For D77G, the “8OG:A repair function score” value was -0.0368.
With S74V the “8OG:A repair function score” value was -0.0223.
M255T was tested, and the “8OG:A repair function score” value was -0.883.
In the case of A63I, the “8OG:A repair function score” value is reported as -0.0351.
Q358T was tested, and the “8OG:A repair function score” value was 0.145.
Q358Y was tested, and the “8OG:A repair function score” value was -0.283.
G236H was tested, and the “8OG:A repair function score” value was -0.00754.
With W103V the “8OG:A repair function score” value was -0.986.
For Q351R, the “8OG:A repair function score” value was 0.0269.
In the case of Q351H, the “8OG:A repair function score” value is reported as 0.0225.
Q240D was tested, and the “8OG:A repair function score” value was -0.979.
K493W was tested, and the “8OG:A repair function score” value was 0.00262.
V65S was tested, and the “8OG:A repair function score” value was -0.0751.
With V142R the “8OG:A repair function score” value was -0.841.
In the case of F59V, the “8OG:A repair function score” value is reported as -0.24.
For P404S, the “8OG:A repair function score” value was -0.587.
R60Q was tested, and the “8OG:A repair function score” value was -0.692.
For G39H, the “8OG:A repair function score” value was -0.44.
G39V was tested, and the “8OG:A repair function score” value was 0.0274.
For P267M, the “8OG:A repair function score” value was -0.774.
For P267E, the “8OG:A repair function score” value was -0.836.
With G205V the “8OG:A repair function score” value was -0.876.
With F453R the “8OG:A repair function score” value was -1.09.
For F453A, the “8OG:A repair function score” value was -0.66.
For R98L, the “8OG:A repair function score” value was -0.107.
Q473P was tested, and the “8OG:A repair function score” value was -0.0268.
C311F was tested, and the “8OG:A repair function score” value was -0.55.
With C311D the “8OG:A repair function score” value was -0.559.
In the case of L355D, the “8OG:A repair function score” value is reported as -0.182.
With A445Y the “8OG:A repair function score” value was -0.693.
In the case of T380A, the “8OG:A repair function score” value is reported as 0.0285.
With Q265T the “8OG:A repair function score” value was 0.00721.
For Q265A, the “8OG:A repair function score” value was -0.0137.
A461W was tested, and the “8OG:A repair function score” value was -1.22.
With G188R the “8OG:A repair function score” value was -0.844.
In the case of G188I, the “8OG:A repair function score” value is reported as -1.11.
For V328M, the “8OG:A repair function score” value was -0.0227.
V328A was tested, and the “8OG:A repair function score” value was -0.0621.
For L396N, the “8OG:A repair function score” value was -0.969.
For Q159Y, the “8OG:A repair function score” value was 0.116.
In the case of T191K, the “8OG:A repair function score” value is reported as -1.26.
For Q271K, the “8OG:A repair function score” value was 0.0343.
In the case of G353E, the “8OG:A repair function score” value is reported as -0.227.
With G353H the “8OG:A repair function score” value was -0.144.
With G353P the “8OG:A repair function score” value was -0.17.
For G353D, the “8OG:A repair function score” value was 0.0347.
With G479V the “8OG:A repair function score” value was 0.00419.
In the case of Q43A, the “8OG:A repair function score” value is reported as 0.0603.
Q43N was tested, and the “8OG:A repair function score” value was -0.0614.
For G170N, the “8OG:A repair function score” value was 0.0595.
For E342T, the “8OG:A repair function score” value was -0.0198.
With K463G the “8OG:A repair function score” value was -0.303.
V414N was tested, and the “8OG:A repair function score” value was -0.679.
For L158P, the “8OG:A repair function score” value was -0.951.
D249P was tested, and the “8OG:A repair function score” value was -0.588.
V348Y was tested, and the “8OG:A repair function score” value was -1.02.
For V348F, the “8OG:A repair function score” value was -0.996.
With V348I the “8OG:A repair function score” value was -0.0535.
In the case of V48T, the “8OG:A repair function score” value is reported as -0.0154.
With V48A the “8OG:A repair function score” value was 0.00435.
Q498H was tested, and the “8OG:A repair function score” value was -0.0117.
With W321A the “8OG:A repair function score” value was -0.265.
With V485L the “8OG:A repair function score” value was 0.0118.
With K164C the “8OG:A repair function score” value was -0.21.
With L432Y the “8OG:A repair function score” value was -0.499.
